In this test the target is mouse FGFR4/β-klotho complex co-expressed in rat L6 myoblast cells (mouse) (UniProt Q03142). Put plainly: cell-based or functional assay.
mouse FGFR4/β-klotho complex co-expressed in rat L6 myoblast cells (mouse), sequence (Q03142 17-799, chain 1 of 2): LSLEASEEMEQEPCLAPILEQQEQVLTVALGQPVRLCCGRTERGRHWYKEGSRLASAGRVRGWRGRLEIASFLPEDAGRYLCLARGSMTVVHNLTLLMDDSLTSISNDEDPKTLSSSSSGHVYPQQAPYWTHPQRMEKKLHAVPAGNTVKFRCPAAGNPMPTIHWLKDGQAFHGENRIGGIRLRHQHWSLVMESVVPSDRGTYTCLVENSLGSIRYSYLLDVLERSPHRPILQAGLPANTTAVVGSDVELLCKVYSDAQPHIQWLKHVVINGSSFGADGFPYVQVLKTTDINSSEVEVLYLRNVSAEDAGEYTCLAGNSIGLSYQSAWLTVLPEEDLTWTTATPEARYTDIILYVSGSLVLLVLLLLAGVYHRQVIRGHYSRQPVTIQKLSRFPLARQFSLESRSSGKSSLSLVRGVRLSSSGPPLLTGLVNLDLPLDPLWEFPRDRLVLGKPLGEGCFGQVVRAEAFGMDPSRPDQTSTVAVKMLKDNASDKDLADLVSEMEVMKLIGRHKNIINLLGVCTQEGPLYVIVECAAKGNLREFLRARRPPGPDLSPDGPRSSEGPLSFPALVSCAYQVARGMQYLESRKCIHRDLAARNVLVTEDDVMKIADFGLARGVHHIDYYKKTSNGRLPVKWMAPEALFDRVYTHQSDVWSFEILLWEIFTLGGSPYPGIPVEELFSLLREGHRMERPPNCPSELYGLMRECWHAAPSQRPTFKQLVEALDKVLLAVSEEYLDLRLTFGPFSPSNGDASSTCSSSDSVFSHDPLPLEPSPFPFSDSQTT
mouse FGFR4/β-klotho complex co-expressed in rat L6 myoblast cells (mouse), sequence (Q99N32 whole entry, chain 2 of 2, further chain): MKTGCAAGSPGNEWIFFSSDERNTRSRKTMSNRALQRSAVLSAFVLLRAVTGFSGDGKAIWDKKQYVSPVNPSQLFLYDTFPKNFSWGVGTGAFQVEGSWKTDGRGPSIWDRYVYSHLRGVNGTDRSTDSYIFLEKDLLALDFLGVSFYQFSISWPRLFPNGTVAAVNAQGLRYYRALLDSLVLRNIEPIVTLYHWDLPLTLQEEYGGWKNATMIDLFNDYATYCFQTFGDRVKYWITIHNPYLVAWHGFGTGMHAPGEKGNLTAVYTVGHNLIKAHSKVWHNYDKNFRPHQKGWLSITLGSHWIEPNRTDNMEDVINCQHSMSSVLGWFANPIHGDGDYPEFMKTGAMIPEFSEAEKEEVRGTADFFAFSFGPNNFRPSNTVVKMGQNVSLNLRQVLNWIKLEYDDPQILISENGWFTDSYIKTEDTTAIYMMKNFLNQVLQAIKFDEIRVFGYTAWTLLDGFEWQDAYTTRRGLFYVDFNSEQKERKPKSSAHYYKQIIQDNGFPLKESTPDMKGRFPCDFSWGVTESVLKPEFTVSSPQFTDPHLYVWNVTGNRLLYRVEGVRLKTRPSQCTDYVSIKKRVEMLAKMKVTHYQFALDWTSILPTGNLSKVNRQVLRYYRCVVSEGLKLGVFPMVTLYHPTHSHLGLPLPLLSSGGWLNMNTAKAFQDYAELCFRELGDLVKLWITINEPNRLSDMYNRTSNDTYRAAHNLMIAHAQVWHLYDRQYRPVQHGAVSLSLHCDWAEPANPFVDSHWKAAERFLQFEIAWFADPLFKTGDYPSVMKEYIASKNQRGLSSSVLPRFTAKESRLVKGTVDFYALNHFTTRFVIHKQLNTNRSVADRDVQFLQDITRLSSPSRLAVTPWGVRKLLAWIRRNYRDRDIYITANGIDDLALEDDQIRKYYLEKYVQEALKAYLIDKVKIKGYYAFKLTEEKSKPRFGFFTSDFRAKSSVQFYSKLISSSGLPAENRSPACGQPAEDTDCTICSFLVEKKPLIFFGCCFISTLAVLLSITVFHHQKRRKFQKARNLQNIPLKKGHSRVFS

On to “FGF19 (human fibroblast growth factor 19, wild type) (from UniProt O95750 25-216) (ligand)”, for which the EC50 (pM), ELK luciferase assay in L6 cells was 52.5 pM and the Emax (fold potentiation), ELK luciferase assay in L6 cells (fold potentiation) is 1.82.
